Data taken from the supplement of paper PMC9170038.

System: MS2 coat protein
Assay: apparent KD of MS2 coat protein; designed switch direction (-1 OFF switch, 1 ON switch): -1; higher = weaker reporter binding
How it was run: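 Designed RNA switches sharing common flanks were transcribed on Illumina chips by stalled E. coli RNA polymerase. They were titrated with SNAP-549-labelled MS2 coat protein, from 0.7 or 1.5 nM doubling to 3 µM, in Tris-HCl pH 7.5 buffer with KCl, MgCl2, BSA, DTT, tRNA and Tween-20. Titrations ran without input, with 200 uM small-molecule ligand, or with an oligonucleotide input. The apparent KD of each design is the median over its clusters, after curve-fitting of normalised cluster fluorescence.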

[1] = input ligand: microRNA oligo, concentration not stated
[2] = Eterna round: R95, input ligand: FMN 200 uM
[3] = Eterna round: R95, input ligand: microRNA oligo, concentration not stated
[4] = Eterna round: R95, input ligand: none

Sequence | apparent KD of MS2 coat protein (input ligand: FMN 200 uM) | apparent KD of MS2 coat protein [1] | apparent KD of MS2 coat protein (input ligand: none) | apparent KD of MS2 coat protein [2] | apparent KD of MS2 coat protein [3] | apparent KD of MS2 coat protein [4]
CUGCUCCGUGUAGGAUAUGCGCGCACCCACCGCGCAGAAGGACAUGAGGAUCACCCAUGUAUGUUAUUAUCACGUGAGGCGCAG [Design 35] (Eterna round: R96, puzzle: Exclusion NG 1) | 29.6 nM | 13.6 nM | 19.2 nM |  |  | 
CUGCUGAAGCUUUGCUUUAGUCGUACAUGAGGAUCACCCAUGUAGGAUAUGGUAGGCUUUGCUUACUAGAAGGAUAGAGUGAUC [salish99_ExNG3_r04_604] (Eterna round: R96, puzzle: Exclusion NG 3) | 72 nM | 82.4 nM | 61.9 nM |  |  | 
CUGCUGGAGCGGCGCUUUGGUCGUACAUGAGGAUCACCCAUGUAGGAUAUGGUAAAAUUCGCCUGCUAGAAGGAUAGAGUGGUC [salish99_ExNG3_r04_617] (Eterna round: R96, puzzle: Exclusion NG 3) | 135 nM | 62.5 nM | 88.1 nM |  |  | 
CUGGAGUCAGGAUAUAGGGCGGCUAUAACGCUCGCGCCGACCUAGAAGGGACUUGAGGAUCACCCAAGUAAAAU [Teerlaxe] (Eterna round: R97, puzzle: Exclusion 4) | 167 nM |  | 55.1 nM |  |  | 
CUGGUCCGAGGAUAUAUUAAGUGAAACAUGAGGAUCACCCAUGUUAUUUAAUGGAAAUAAAUAGAAGGCGGACUAG [Mat - Exclusion 5 - JL mod - D55] (puzzle: Exclusion 5) |  |  |  | 34.4 nM | 33.7 nM | 59.9 nM
CUGGUCCGAGGAUAUAUUAAGUGAUACAUGAGGAUCACCCAUGUAAUUUAAUGGAUAUAAAUAGAAGGCGGACUAG [Mat - Exclusion 5 - JL mod - D48] (puzzle: Exclusion 5) |  |  |  | 42.9 nM | 26.4 nM | 32.8 nM
CUGGUCCGAGGAUAUAUUAAGUGAUACAUGAGGAUCACCCAUGUAAUUUGAUGGAAGUAAAUAGAAGGCGGACUAG [Mat - Exclusion 5 - JL mod - D45] (puzzle: Exclusion 5) |  |  |  | 34.2 nM | 43 nM | 74 nM
CUGGUCCGAGGAUAUAUUAAGUGAUACAUGAGGAUCACCCAUGUUAUUUGAUGGAUAUUAAUAGAAGGCGGACUAG [Mat - Exclusion 5 - JL mod - D75] (puzzle: Exclusion 5) |  |  |  | 31.9 nM | 18.8 nM | 28.7 nM
CUGGUCCGAGGAUAUAUUUAGUGAAACAUGAGGAUCACCCAUGUUAUUAGAUGGAUGUAAAUAGAAGGCGGACUAG [Mat - Exclusion 5 - JL mod - D63] (puzzle: Exclusion 5) |  |  |  | 18.5 nM | 20.4 nM | 23.8 nM
CUGGUGUGAGGAUAUCAAAGACCUCGGGAAAGAACCGAGAAUGAGAAGGCACAUGAGGAUCACCCAUGUAACAA [Enerteon] (puzzle: Exclusion 4) |  |  |  |  | 17.9 nM | 
CUGGUGUGAGGAUAUCAAAGACCUCGGGAUAGUACCGAGGAUGAGAAGGCACAUGAGGAUCACCCAUGUAACAA [Armaleti] (puzzle: Exclusion 4) |  |  |  |  | 22.1 nM | 
CUGGUGUGAGGAUAUCAGGACACGCCCGCGGACGUGUCAAAUGAGAAGGCACAUGAGGAUCACCCAUGUGGGAC [Onzausin] (puzzle: Exclusion 4) |  |  |  |  | 31.7 nM | 
CUGUGCUGACGGAGAUCCAACAUGAGGAUCACCCAUGUCUCAAAAGCUUUUUGCUCGUCUUAUCCUCCUCAGUACAC [Mat - Sensor, turn-off var - Eli Mod - D56] (Eterna round: R97, puzzle: Sensor, turn-off variant 1) | 17.7 nM |  | 17.2 nM |  |  | 
CUGUUUUUCGCAGGAUAUGCUCCUCCUUUAUUUGCAGAAGGGCGUUAAACAUGAGGAUCACCCAUGUAUGGUAAUGACAUUUUC [JR_ExcNG1_Sub063] (Eterna round: R96, puzzle: Exclusion NG 1) | 135 nM | 20.8 nM | 29.6 nM |  |  | 
CUUAAACAUGAGGAUCACCCAUGUCAGGAUAUGAUACUAUGUACUUCGGUACAUAGUAUCAGAAGGGAUAUAAA [Ex1-3: 65] (puzzle: Exclusion 1) |  |  |  |  | 39.3 nM | 
CUUAGACAUGAGGAUCACCCAUGUGAGGAUAUGAUGCGAUCGUGCUGACAUGAUCGCAUCAGAAGGCACAUAUG [JL-ex1-01 Hyphema Mod2] (Eterna round: R96, puzzle: Exclusion 1) | 242 nM | 101 nM | 115 nM |  |  | 
CUUAGACAUGAGGAUCACCCAUGUGAGGAUAUGAUGCGAUCGUGCUGACAUGAUCGCAUCAGAAGGCACAUAUG [JL-ex1-01 Hyphema Mod2] (puzzle: Exclusion 1) |  |  |  |  | 120 nM | 
CUUAUGGUCCAUACCUAGAACAUGAGGAUCACCCAUGUAAUACAUGACACCUACCUUAAGCACAGCUCGUCUUGUAG [Eternabot (Original) Solution 30] (Eterna round: R97, puzzle: Sensor, turn-off variant 1) | 48.9 nM |  | 57 nM |  |  | 
CUUCCCAAAGGAUAUCACGGUAAUAACAUGAGGAUCACCCAUGUGCAAUUCGUGUCCCUGUGAGAAGGUUGAGAAG [Anlabe] (puzzle: Exclusion 5) |  |  |  | 17.9 nM | 11.1 nM | 12 nM
CUUCUCAAAGGAUAUCACGGUAAUAACAUGAGGAUCACCCAUGUGCAAUUCGUGUCCCUGUGAGAAGGUUGAGAAG [Remaor] (Eterna round: R96, puzzle: Exclusion 5) | 19.5 nM | 11.1 nM | 13.2 nM |  |  | 
CUUCUCAAAGGAUAUCACGGUAAUAACAUGAGGAUCACCCAUGUGCAAUUCGUGUCCCUGUGAGAAGGUUGAGAAG [Remaor] (puzzle: Exclusion 5) |  |  |  |  | 10.5 nM | 
CUUGUGCAACAGGAUAUGUGCACGGCAGUAGCAACAGAAGGGUUGACAUGAGGAUCACCCAUGUUUACAAAGCG [Eternabot (Original) Solution 35] (Eterna round: R97, puzzle: Exclusion 6) | 132 nM |  | 137 nM |  |  | 
CUUGUGUGAGGAUAUGACAAUGGUAUCUUCGGAUACCAUUGUCAGAAGGUACAUGAGGAUCACCCAUGUAGAUC [Exclusion 4 - Mod Brourd Ex 4-3: 20] (puzzle: Exclusion 4) |  |  |  |  | 72 nM | 
CUUUCGUCUGUGGGUGGUGACAUGAGGAUCACCCAUGUUUUGCUCGUCUUGUGCCGGGCCCGGCGCCCGGGCCCGGC [-38.7, -62.6, A 8%] (Eterna round: R97, puzzle: Sensor, turn-off variant 1) | 861 nM |  | 992 nM |  |  | 
CUUUCGUGAGGAUAUCAGUAGUAAAAAUAUAAAAUUACUACUGAGAAGGCACAUGAGGAUCACCCAUGUUCCUC [salish99_ex3_r3_100] (puzzle: Exclusion 4) |  |  |  |  | 24.1 nM | 
CUUUCGUGAGGAUAUCAGUAGUAAAUAAAUAAAAUUACUACUGAGAAGGCACAUGAGGAUCACCCAUGUUCCUC [salish99_ex3_r3_096] (puzzle: Exclusion 4) |  |  |  |  | 23.5 nM | 
CUUUCGUGAGGAUAUGUGGCUUCGAAAGUGAGAUCGAGGCUACAGAAGGCACAUGAGGAUCACCCAUGUUCCUC [salish99_ex4_r4_214] (Eterna round: R97, puzzle: Exclusion 4) | 371 nM |  | 28.2 nM |  |  | 
